Test results reported in the RNAGym collection of RNA variant scans (doi:10.1073/pnas.2313332121).

B1: TPR t1 (parent)
chain: GACCAAUCUGCCCUCAGAGCUCGAGAACAUCUUCGGAUGCAGAGGAGGCAGGCUUCGGUGGCGCGAUAGCGCCAACGUCCUCAACCUCCAAUGCAUCCCACCACAUGAUGAUGCCUGAAGAGCCUUGGUUUUUUG

Variants of: B1
Assay: polymerase ribozyme fitness, log enrichment relative to wild type (log ratio); higher = more active; in vitro selection for triplet polymerase activity
How it was run: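 Libraries of mutants in each subunit of a heterodimeric triplet polymerase ribozyme were generated by PCR and transcribed. In triplicate, each went through one in vitro selection round: annealing with biotinylated primer, partner subunit and triplets; frozen incubation at −7 °C; gel excision of extended constructs; streptavidin-bead capture; RT-PCR. Fitness, taken from Illumina sequencing of input and output libraries, is the logarithm of a genotype's enrichment over wild-type enrichment, averaged across replicates with inverse-variance weights. The logarithm is base 2, and genotypes needed ≥10 input reads and ≥1 read per output to be kept.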

Variant | polymerase ribozyme fitness (log ratio)
U14A C34G G71C A91G C124A | -6.51
C13U C28G A43G G110C | -0.443
U14A C101U | -3.07
C13U C34U C40U A50G U59C | -5.78
C13G U59A C62G | -3.87
C13U G35C | -3.79
C13U A41U | -0.968
C15G C62U C79A A95G G117U | -1.98
U14A G63A G93A | -4.67
C15G A37C C49U C53U | -4.47
C13U A27U G42U C64G A100C G120C C123G | -7.95
U14G G36U G42C G61A G113A U132A | -5.95
C15A A43U C76G | -3.73
U14C G63C U112G G113U | -5.75
C15A U109A | -5.42
U14G C40U U59C A84G U129A | -6.42
C13G G71U | -1.79
C15A A41C C104U | -2.15
U14A U21A U30G G58C U112C A118C | -4.31
C15A G52U A66U C94G | -5.17
C15A U33C A83U C101G G117C | -7.47
C15G G113C | -6.27
U14C G44U | -3.05
U14C C15U C73G | -3.76

Variant | polymerase ribozyme fitness (log ratio)
C15A U33A G117A | -5.68
C15A G51A A74U C79G A111C A118U | -6.36
U14G G48U | -2.8
C15A A16C C72A | -2.92
C15A A24U C72G C76U C123G | -6.56
C13G U54C G63A A100U U109A U131G | -6.38
C15A C56G | -3.39
C15U A16U G57A C82U U112A | -5.23
C13U U32G U87C | -7.09
C13G U21A G52C A91C G120C | -3.21
C13U C22G A26C A37U A41G A50G C115U | -3.21
C13U G122A | 0.447
C15G G107A | -5.32
C15A C62A C76U U96G C115U | -6.47
C13U C56U A90G | 0.402
U14A A46C C70A U112A A119G G122C | -2.7
U14A G52U C72U U116C G122U | -4.11
C13U C104U | -0.259
C15G A46G G71A C88G | -5.35
C15G C88G | -3.07
C13U A91U | -0.839
C15A C85G | -3.35
C15G G42C G60U C94U A118U | -3.25
C15A U54A C56G C72A | -2.89

Variant | polymerase ribozyme fitness (log ratio)
C15A A26G G110A G113U | -6
C13U U78C C115U | 1.27
C13U A46G G47U C82A | -1.52
C13U C88A | -0.243
U14G G61C | -4.21
C13U A18U U81G G117U | -6.34
U14G G47A C89G C114G U116C G117A U133A | -6.43
C13G U32C C53A C70G | -3.88
U14A U54G A84U C98A A103U G117A C123G G128A | -6.1
C15G A37C C73G G120C G128U | -4.14
C15G U59G C123G U129G | -1.59
C13U A108U | -4.78
U14C A16U C88U C101A U129G | -5.73
C13U C99U U133G | -2.46
U14G C53A A84C | -2.21
C13U C86U | -0.506
U14G C80U C89G | -4.89
U14G C49G | -2.23
U14G A37U C70U A74U U133G | -3.41
U14G G45A C102U | -5.41
C13U G45U C82U | -0.895
U14G G120C | 0.117
U14G G45A A121U | 0.629
C13U A26G G63C U81A G117C | -6.91

Variant | polymerase ribozyme fitness (log ratio)
C13U C53G C56A | -0.438
C15G A66G G69C C89U | -5.99
C15G C40A U92C | -4.63
C13U C53A U54C G120C | 1.15
U14A U106A | -1.9
C13U A37C C53G G128C | -1.48
U14C U67A G69A | -5.17
U14A C20G C40U G45A G63C U96G U112A G117A | -6.83
C13U G47U | -1.97
C13U C102U G117U | -3.38
C13U C56U | 0.718
C13U G60A C82A U131G | -0.416
C15G A37U C56U C123A | -1.93
C13U A83G | 0.0266
C15G G60A G117U | -0.472
C13U A121G | 2.04
C13U A121U | 2.03
U14G A111C G127A | -3.8
C13U A27U C49A U130C U132C | -2.53
C13U C22G C49U G71C C102U G122A | -5.74
C15G G47U U55C U78C C82U C86A G120U | -2.18
U14A G48A U59A C89A | -5.96
C13U G48U C73U U130G | -0.119
C15G A95U C98U | -5.14

Variant | polymerase ribozyme fitness (log ratio)
C13U G39U C73A A83U A121U | 1.24
U14A G71C G128A | -3.99
C13U A27G | -2.05
U14A C49G | -2.67
C15G G71A | -2.92
C15A G39C G117A | -1.64
U14C A46C C79U U106C | -3.22
U14A C56U C73U U112G G120C | -1.15
C15A C40A C102U C114G | -6.22
C13U G44A C79G G93U | -4.32
C15G A50U | -3.73
U14G C64U C98U | -4.29
U14G U21G C40A G48C U106A | -5.19
C13U C56G C62U A74G U96A A100C | -4.8
U14G | -1.56
U14C | -1.23
U14A | -1.85
C15A G42A G71U G117C | -5.93
C13U C15G C88A U96C | -2.33
C15G C70G C86A G120A | -4.5
U14G C114U U132A | -7.19
C15G C79U | -1.96
C13U C56A U96G | -0.637
C13U G58A C73U | -0.277

Variant | polymerase ribozyme fitness (log ratio)
U14A G61A G117A | -4.06
C15A C49U C72A U132A | -1.5
C13U U106G | -0.787
C13U C15U U54G U81A U96A | -3.41
U14C G71U A91U C114A A121U C124U | -4.54
C13U U129A | -0.61
C15G G44C G47A G69U | -3.06
U14G U130A | -3.36
C15G C49U U78A U125G | -3.37
C15A G60U | -2.01
C15A G39U C40U C64U G93C | -4.09
U14G A91U | -3.73
U14C G48U U54A | -2.87
C15A C40A | -3.27
C15A G52U | -3.6
U14A G61C | -3.93
C13U A43G G60A | -1.39
C15G A29G G39U G69U | -4.2
U14G A43U C88G | -3.5
C13U U59C A83U U96G | -1.05
C13G G117A | -1.95
C13U A50C | -0.095
C13U C72U C94G | -1.35
C15G C73A | -2.02

Variant | polymerase ribozyme fitness (log ratio)
U14G G44C C80U | -3.74
C13U G47C U78C U109G | -4.45
C13U G19A G77C U81C | -3.54
C15G C97U C124U | -1.59
C13U C40U C124U G135C | 0.605
U14G G60U G61A | -3.09
C13G U32C A46U C70A C104U | -3.75
C13G U59C | 0.688
C13U G39U U59A G128U | -1.64
C15A U78C | -2.38
C13U A27U G36A G61A C79A | -5.13
C15G G47U | -3.95
U14A A37U G52A U59C | -3.31
C15G C62A | -3.96
C13U G69A C88U | -2.75
C15A G19U G63C G113A G135C | -3.99
U14A C72U C89A | -3.16
C15A A29G | -2.66
C15A U21A U78A G93U | -2.36
C13U U30C C80A C89U C124G | -5.32
C13U C28G C101A C104A | -5.64
C13U A29C G52U C104U G120A U131A | -2.05
U14A A24C C49G C72U U92C G113U U116A | -6.78
